Our source for the Kd values is publication PMC8938504.

Assay [1] addresses MBP:RGA5_HMA (wild-type HMA domain of RGA5 fused to maltose-binding protein) (rice (Oryza sativa)) (UniProt F7J0N2). Kind of assay: SPR; single-cycle kinetic titration, Biacore T200, 25 °C; […]; 20 mM Tris pH 8, 150 mM NaCl, 0.5 mM DTT, 0.05% P20; steady-state model. For orientation: In SPR one partner is held on a chip, and binding of the other changes the refractive index at the surface.

Assay [2] concerns the target MBP:RGA5_HMAm1m2 (rice (Oryza sativa)) (UniProt F7J0N2). Kind of assay: SPR; […] (single-cycle kinetics, […]; 25 °C; 20 mM Tris pH 8, 150 mM NaCl, 0.5 mM DTT; […].
A further assay deals with the engineered RGA5_HMAs. The description is as above.

What is called Kd is the equilibrium constant for the complex coming apart. A higher Kd goes with lower affinity. In assay [1], “AVR-PikD (dSP-AVR-PikD, His-tagged) (natural protein)” gave a Kd of 8.32 µM. This lies in the single-digit micromolar range. With “6×His-tagged AVR1-CO39 (natural protein)”, the Kd in assay [2] is 6.3 µM. The substance 6×His-tagged AVR-Pia (natural protein) had a Kd in assay [2] of 5.9 µM. Substance “6×His-tagged AVR-PikD (from UniProt C4B8B8 22-113) (natural protein)” returned a Kd with the engineered RGA5_HMAs of 0.0005 to 0.0016 µM.
